# Source: a protein production outcome set (Wang et al. 2014)
# Assay: label from the status in PepcDB records
row,Sequence,protein production
1,MMLDALQANGLMQILLLTLMAGLAMPVGAALASVERIHPRWLETEVRHSVIAFGGGALLAAVALVLVPEGTANLPMVGIVVCFAGGGISFMLLDRWLAANGTPASQLVAMLSDFVPEAMALGATFSVSSEGGILLAGIIALQNIPEGFNSYRELVDATHYRGLKIVGALALMALLGPVAGALGYFLLSDAPSVVSGIMLFAAGGILYIIFQDIAPQVRLKKHWAPPLGALAGFLLGVMGEVALSG,failed
2,MMLNRKDADYYLGKEIMLARIRRGALIPAKVNEEHFWLLIGISSIHSEKIIQALRDYLVFGVSRKDVCERYEVNNGYFSTSLNRLSRISQAAAQMVVYYSLEHHHHHH,not failed
3,MMLRFSVITYTFGRLTTKKHNKVMKKLIFLFAFCLTVTNIFAQTDPSQLKKEGSDAFNAKNYPVAYAKFSEYLKQTNNQDSAIAYYCGMAADEVKKYAEAVTFFDIAIQKKFNIGNAYARKALALDAMKKTDEYVATLEEGLKVDPDNKTMIKNYGLHYLKAGIAAQKAGKVEEAEECFKKVIPLDHKTYKTNALYSLGVLCYNDGANILKKAAPLANSDADKYAAEKEKADGRFKEAIGYLEEATKVSPEDTKSKTMLSQVQAAMK,failed
4,MMLSMNRELIYLMLIFALLVIPRALQRFMVPAPLTCLLFGIGTMLVMGGKPHDDVIVLLSTLGISSLFLFAGLEVDLKALRRELWPLGVHLLVYSVALFCLGWLVWRYVGLTWQVAGLLALALLTPSPGFIIDSIGRLGLNEHERFWVVNKAIASELLALTVLFFVLQASDPWQMALSSGVLVALFVCLPLLFVALDRWVVPQAPGSEFSLLVMVGMIAAYATYKIGVYYLVGAFITGLIARLLHQRMPHLASEENLNAVRLFASFFVPFYFFRAGTNVSPQALSFEALGLGILITMVVLPLRIAVIWVQRRVLFGKGEDFRSSLRVSLALVPTLIFTLVLAGILRDRFSISEVLFGALLLYAAFTTLLPSLIFRLLSAWGVPSRSGDQASRETLPSSGMAG,failed
5,MMLTMGMLERYVLKRTMGALVGALAVLSAMVMLIAFVDIARNVGTRADASFLRLLYLTILQAPATILVLAPFIFLFGTMWAFVELNRRSELIAMRAAGISAWRFIMPAAASSFVIGLLTITLLNPLTTAMTAKFETERDRTMNGYLKEAPKGTWLRQGDDKTQIVIRARARELVDGSVRLRGVSLFVYTLNAKGVMDFTRRIEANEARLEPGFWRLSGVREATPGAGAIRSDSLSIPSNLDDRTASERFNTPQAVALWRLPATIQRTADAGFSAVPFKLRLQQDLATPLLFAAMSVLAAAFSLRLMRLGGLAMLAGSGVALGFGFFFFNELCSTLGRADVLAPFVAAWTPPTVALLVGFTLLCYTEDG,failed
6,MMMKIGDKLKGKITGIKPYGAFVQLENGSIGLIHISEIKTGYIDNIYQTLSVGQEVLVQVVDYDEYSQKASLSLRTLEEEKHHYQHRHRFSNNRLNIGFKPLEEHLPIWVEENLDYLKKDQDESDNQAKD,failed
7,MMMLNPSNGGIEGEKMKKKAKVVVIMGPTGSGKSKLAVDLASHFPVEIINADAMQIYSGLDVLTNKVTVDEQKGVPHHLLGTVSSDMEFTARDFRDFTVPLIEEIVSRNHIPVLVGGTHYYIQAVVSKFLLDDAAEDTEECCADVASVVDQDMVVESVFGRDDLSHGYELLKELDPVAANRIHPNNHRKINQYLSLHASRGVLPSKLYQGKTAENWGCINASRFDYCLICMDAETAVLDRYVEQRVDAMVDAGLLDEVYDIYKPGADYTRGLRQSIGVREFEDFLKIHLSETCAGHLTSLSNDDKVMKENLRKILNFPKDDKLRIMLEEAIDRVKLNTRRLLRRQKRRVSRLETVFGWNIHYIDATEYILSKSEESWNAQVVKPASEIIRCFLETETESGRDPTSGKSIERDLWTQYVCEACGNKILRGRHEWEHHKQGRTHRKRTTRHKNSQTYKNREVQEAEVN,failed
8,MMMMRAFIAENVRGIYAFDEDGKLVGKRYFTDKPEKILDGLLKGELVKDLEEFLNELREKGYDEFIFEHPELSRKAKELGFNATTEFPNLAGERLRSNPEEFLGENWFDDYYNVGVALTRMRIQEQSGARDKMVIQAIEALDDVDKVINLLVSRLREWYSLHFPELDEILPRHPQYVAFVKAIGHRDNVDEEKLRELGLSDEKIKKIIEAKEKTMGAWMDETDIAIVQHFAEEIDRLYKLRKELEDYIDKAMDDVAPNLKALVGAKLGARLISLAGGLKELAMLPSSTIQVLGAEKALFRHLRTGAKPPKHGVIYQYPAINRSPWWQRGKIARALAGKLAIAARVDYFSGEYIAEELKKELEARIKEIKEKYPRPPKRRKEERKGRKPWKEKKKKKKKKKGGRRLEHHHHHH,failed
9,MMMTRSWAAGGSAVLLALLLGGTITSAHAQSADLVLCDRIAADPADPDKPADVKGVTEIAPGDVSTAIKYCRVASAGSRRAMYGLGRAYAAGGQTAEALAAYRKAADKGSSAAMVELGVAYATGVGLPKDDAKARQLLERAAAAGNPRGISNLAALGGGASSDPVKTRALLAKGAESNAEAQYQLGMMMADGIGGPKDDAGARALFEKAAGQGHPGALMQMGAFAQAGRGGPKDSDAAKAYYEKAAALGNADAKAALKRSDCPYVLKDKRGNMVTNLCF,failed
10,MMNGENMDKQTVIGFVVLFCVLELVFYLKKLYQSMALTLAVFGIFSLLFFLLYIPVLSKKAVPYVINYFKPPHQRVREIKVGSDETTDNSIIRLKEKAKTLHPDEGNRISGRSSNSFKDSASCIITIVDDSN,failed
11,MMNTITNIVSYLPYLFAWFLLGYMGIVVLVYTGMLLLSVVQLKREQKLNKQEVYDDYLELTYTKPVSILVPAYNEETGIIETVRSLLSLKYPQTEIVVVNDGSTDQTLEVIIEHFQMVKVGKVIRKQIETEPIKGVYQSTIFPHLLLVDKSNGGKADALNAGLNVSKYPYFCSIDGDSILETDALLKVMKPIVTSRDDEDEVIASGGNVRIANGSDIQMGSVLSVQLAKNPLVVMQVIEYLRAFLMGRIGLSRHNMVLIISGAFSVFAKKWVMEAGGYSKKTVGEDMELVVRLHRLVKEKRLKKRITFVPDPVCWTEAPATFRVLQRQRSRWHRGLMESLWLHRGMTFNPKYGLVGTASIPYFWIVEFFGPVVELMGYLYIVFAFFFGGLYVEFALALFLLFVLYGTVFSMTAVILEGWSLKRYPKVSDMSRLMIFSLFEALWYRPLTVLWRFGAIIEALFRSKAWGEMTRKGLTKAEQKAS,failed
12,MMNYNTPKVSIVVPSLNSISYIRECIDSILNQTLKDIEILCIDANSTDGTLEVLKNYEKKDKRLRVIISDKKSYGYQMNLGIKEAKGEYLGIVESDDYIKTNMYERLYEIAKKNDCEVVKGDFYIFAYGKTEYVNVLRNSCEDIYNYKVNWNKDIRIFLGSDGINPIGIYRLDLLRTNQIKLNETPGASYQDNGLWFQIFALAKSIYFINEAFYMLRRDNPNSSVKSKEKVYCACEEYDFIRDFLKKHPDLEKTLAPICALHRFGNYMFTLERIDERYKLDFLKRFSQDFRKILKDKELDENLFGNINMQRINKIIENPVIYYYFSRGARARLQNQLVYRLGKVVVEAKSFNKIIKLPFLMLKICLEHNFEHKVYRSIVQFRPDLKLLPLECYLDYHEALVIKEHLSYKFGKLILLSFKGWYKGKIFILPFMLKKRYKEYKNKMILEHHHHHH,failed
